Source: patent publication US8951962B2, “Modified exendins and exendin agonists” (priority 1999, dated 2015)
No end group written: not given here. PEG = not defined here

How the values were obtained:
[1] = HPLC analysis of plasma for circulating metabolites after large intravenous doses; type: in vivo; conditions: plasma of animals after large intravenous doses
[2] = target: T1, GLP-1 receptor (RINm5f membranes) (Rattus norvegicus, UniProt P32301); assay: Cyclase activation study (GLP-1 Cyclase), cAMP SPA immunoassay on RINm5f membranes; type: biochemical; conditions: read-out: GLP-1 Cyclase EC50, 20 minutes at 37° C., supernatant cAMP
T1 construct: host or cells: RINm5f cells (membranes/homogenate)
T1 sequence (P32301 22-463): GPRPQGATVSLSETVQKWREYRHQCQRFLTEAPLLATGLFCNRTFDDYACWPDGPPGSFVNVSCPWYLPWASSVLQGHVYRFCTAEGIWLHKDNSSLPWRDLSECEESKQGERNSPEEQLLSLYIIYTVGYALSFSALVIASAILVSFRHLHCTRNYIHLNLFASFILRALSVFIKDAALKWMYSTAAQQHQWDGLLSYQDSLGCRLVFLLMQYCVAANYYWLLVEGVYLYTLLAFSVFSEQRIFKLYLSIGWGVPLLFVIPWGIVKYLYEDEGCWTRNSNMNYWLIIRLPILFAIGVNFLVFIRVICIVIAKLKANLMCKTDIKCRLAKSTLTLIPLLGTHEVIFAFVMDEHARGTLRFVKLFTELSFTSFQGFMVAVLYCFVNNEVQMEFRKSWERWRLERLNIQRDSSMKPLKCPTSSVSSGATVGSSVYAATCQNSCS
Method: All other peptides were prepared using synthesis methods such as those described herein. All chemicals were of the highest commercial grade. The cAMP SPA immunoassay was purchased from Amersham. The radioligands were purchased from New England Nuclear (Boston, Mass.). RINm5f cells (American Type Tissue Collection, Rockville, Md.) were grown in DME/F12 medium containing 10% fetal bovine serum and 2 mM L-glutamine. […] Cells were grown to confluence then harvested and homogenized using on a Polytron homogenizer. Cell homogenates were stored frozen at −70° C. until used.
Membranes and peptides was combined in […] of assay buffer in 96 well filter-bottom plates (Millipore Corp., Bedford, Mass.). After 20 minutes incubation at 37° C., the assay was terminated by transfer of supernatant by filtration into a fresh 96 well plate using a Millipore vacuum manifold. Supernatant cAMP contents were quantitated by SPA immunoassay. Peptide samples were run in the assay as triplicate points at 7 dilutions over a concentration range of 10^−6M to 10^−12M to generate response curves. The biological activity of a particular sample was expressed as an EC50 value calculated as described above.

NIH:Swiss mice = assay: Food intake (appetite suppression) in normal mice; type: in vivo; conditions: inhibition of food intake over 30 min, intraperitoneal injection, food deprived NIH:Swiss mice
Method: All mice (NIH:Swiss mice) were housed in a stable environment of 22 (±2)° C., 60 (±10) % humidity and a 12:12 light:dark cycle; with lights on at 0600. […] All experiments were conducted between the hours of 0700 and 0900.

Substance	plasma circulating metabolites (HPLC) [1]	EC50 [2] [nM]	Appetite Suppression ED50 (NIH:Swiss mice)
GLP-1 [7-36]NH2	subpeptide degradants		
HGEGTFTSDLSRQMEEAVRLFIEWLRNGGPSSGAPPPK(PEG)-NH2 (reading uncertain; also: printed as HGEGTFTSDLSRQMEEAVRLFIEWLRNGGPSSGAPPPK(PEG)-NH2) [compound 229]		60.4	0.0145 mg/kg
HGEGTFTSDLSRQMEEEAVRLFIEWLRNGK(PEG)PSSGAPPPS-NH2 [224] (not fully specified; PEG linker; C-terminal amide) [compound 224]		3.22	weak
HGEGTFTSDLSRQMEEEAVRLFIEWLRNGK(PEG)PSSGAPPPS-NH2 [230] (not fully specified; PEG linker; C-terminal amide) [compound 230]		157	
amylin: peptide hormone studied for comparison of plasma degradation (KCNTATCATQRLANFLVHSSNNFGAILSSTNVGSNTY; Islet amyloid polypeptide; UniProt P10997 34-70, looked up)	subpeptide degradants		
